{"source": "the supplement of paper PMC10567573", "parents": {"B1": {"name": "PBXIP1 (parent)", "chain": "EKQKQPRWREGTKDSHDPLPSWAE"}, "B2": {"name": "MLH1 (parent)", "chain": "YNIATRRKALKNPSEEYGKILEVV"}}}
{"variants_of": "B1", "experiment": "protein stability index of a GFP-peptide fusion (GPS, HEK-293T) (PSI 1-6); higher = more stable", "conditions": "c terminus: a fixed tail appended"}
{"variant": "EKQKQPRWREGTKDSHDPEPSWAE", "note": "[L19E]", "protein stability index": 3.44}
{"variant": "EKQKQPRWREGTKDSHDPGPSWAE", "note": "[L19G]", "protein stability index": 2.56}
{"variant": "EKQKQPRWREGTKDSHDPHPSWAE", "note": "[L19H]", "protein stability index": 2.63}
{"variant": "EKQKQPRWREGTKDSHDPKPSWAE", "note": "[L19K]", "protein stability index": 1.68}
{"variant": "EKQKQPRWREGTKDSHDPNPSWAE", "note": "[L19N]", "protein stability index": 2.49}
{"variant": "EKQKQPRWREGTKDSHDPPPSWAE", "note": "[L19P]", "protein stability index": 1.73}
{"variant": "EKQKQPRWREGTKDSHDPRPSWAE", "note": "[L19R]", "protein stability index": 2.86}
{"variant": "EKQKQPRWREGTKDSHDPSPSWAE", "note": "[L19S]", "protein stability index": 1.77}
{"variant": "EKQKQPRWREGTKDSHDPTPSWAE", "note": "[L19T]", "protein stability index": 2.27}
{"variant": "EKQKQPRWREGTKDSHDPLASWAE", "note": "[P20A]", "protein stability index": 2.13}
{"variant": "EKQKQPRWREGTKDSHDPLDSWAE", "note": "[P20D]", "protein stability index": 1.79}
{"variant": "EKQKQPRWREGTKDSHDPLFSWAE", "note": "[P20F]", "protein stability index": 1.52}
{"variant": "EKQKQPRWREGTKDSHDPLHSWAE", "note": "[P20H]", "protein stability index": 2.22}
{"variant": "EKQKQPRWREGTKDSHDPLISWAE", "note": "[P20I]", "protein stability index": 2.48}
{"variant": "EKQKQPRWREGTKDSHDPLKSWAE", "note": "[P20K]", "protein stability index": 2.66}
{"variant": "EKQKQPRWREGTKDSHDPLMSWAE", "note": "[P20M]", "protein stability index": 1.31}
{"variant": "EKQKQPRWREGTKDSHDPLNSWAE", "note": "[P20N]", "protein stability index": 1.88}
{"variant": "EKQKQPRWREGTKDSHDPLQSWAE", "note": "[P20Q]", "protein stability index": 2.45}
{"variant": "EKQKQPRWREGTKDSHDPLRSWAE", "note": "[P20R]", "protein stability index": 2}
{"variant": "EKQKQPRWREGTKDSHDPLWSWAE", "note": "[P20W]", "protein stability index": 1.44}
{"variant": "EKQKQPRWREGTKDSHDPLYSWAE", "note": "[P20Y]", "protein stability index": 1.75}
{"variant": "EKQKQPRWREGTKDSHDPLPDWAE", "note": "[S21D]", "protein stability index": 4.6}
{"variant": "EKQKQPRWREGTKDSHDPLPEWAE", "note": "[S21E]", "protein stability index": 3.19}
{"variant": "EKQKQPRWREGTKDSHDPLPFWAE", "note": "[S21F]", "protein stability index": 2.54}
{"variant": "EKQKQPRWREGTKDSHDPLPGWAE", "note": "[S21G]", "protein stability index": 2.93}
{"variant": "EKQKQPRWREGTKDSHDPLPHWAE", "note": "[S21H]", "protein stability index": 3.27}
{"variant": "EKQKQPRWREGTKDSHDPLPIWAE", "note": "[S21I]", "protein stability index": 2.56}
{"variant": "EKQKQPRWREGTKDSHDPLPKWAE", "note": "[S21K]", "protein stability index": 1.75}
{"variant": "EKQKQPRWREGTKDSHDPLPLWAE", "note": "[S21L]", "protein stability index": 2}
{"variant": "EKQKQPRWREGTKDSHDPLPMWAE", "note": "[S21M]", "protein stability index": 2.6}
{"variant": "EKQKQPRWREGTKDSHDPLPNWAE", "note": "[S21N]", "protein stability index": 2.01}
{"variant": "EKQKQPRWREGTKDSHDPLPQWAE", "note": "[S21Q]", "protein stability index": 3.03}
{"variant": "EKQKQPRWREGTKDSHDPLPTWAE", "note": "[S21T]", "protein stability index": 2.62}
{"variant": "EKQKQPRWREGTKDSHDPLPVWAE", "note": "[S21V]", "protein stability index": 2.68}
{"variant": "EKQKQPRWREGTKDSHDPLPWWAE", "note": "[S21W]", "protein stability index": 4.58}
{"variant": "EKQKQPRWREGTKDSHDPLPYWAE", "note": "[S21Y]", "protein stability index": 3.67}
{"variant": "EKQKQPRWREGTKDSHDPLPSAAE", "note": "[W22A]", "protein stability index": 5.8}
{"variant": "EKQKQPRWREGTKDSHDPLPSDAE", "note": "[W22D]", "protein stability index": 5.82}
{"variant": "EKQKQPRWREGTKDSHDPLPSEAE", "note": "[W22E]", "protein stability index": 5.99}
{"variant": "EKQKQPRWREGTKDSHDPLPSHAE", "note": "[W22H]", "protein stability index": 5.32}
{"variant": "EKQKQPRWREGTKDSHDPLPSIAE", "note": "[W22I]", "protein stability index": 5.01}
{"variant": "EKQKQPRWREGTKDSHDPLPSKAE", "note": "[W22K]", "protein stability index": 5.42}
{"variant": "EKQKQPRWREGTKDSHDPLPSLAE", "note": "[W22L]", "protein stability index": 3.24}
{"variant": "EKQKQPRWREGTKDSHDPLPSNAE", "note": "[W22N]", "protein stability index": 5.48}
{"variant": "EKQKQPRWREGTKDSHDPLPSPAE", "note": "[W22P]", "protein stability index": 5.49}
{"variant": "EKQKQPRWREGTKDSHDPLPSQAE", "note": "[W22Q]", "protein stability index": 5.57}
{"variant": "EKQKQPRWREGTKDSHDPLPSRAE", "note": "[W22R]", "protein stability index": 5.4}
{"variant": "EKQKQPRWREGTKDSHDPLPSSAE", "note": "[W22S]", "protein stability index": 4.78}
{"variant": "EKQKQPRWREGTKDSHDPLPSTAE", "note": "[W22T]", "protein stability index": 5.07}
{"variant": "EKQKQPRWREGTKDSHDPLPSYAE", "note": "[W22Y]", "protein stability index": 4.85}
{"variant": "EKQKQPRWREGTKDSHDPLPSWEE", "note": "[A23E]", "protein stability index": 2.39}
{"variant": "EKQKQPRWREGTKDSHDPLPSWFE", "note": "[A23F]", "protein stability index": 3.56}
{"variant": "EKQKQPRWREGTKDSHDPLPSWHE", "note": "[A23H]", "protein stability index": 4.04}
{"variant": "EKQKQPRWREGTKDSHDPLPSWIE", "note": "[A23I]", "protein stability index": 2.61}
{"variant": "EKQKQPRWREGTKDSHDPLPSWKE", "note": "[A23K]", "protein stability index": 4.51}
{"variant": "EKQKQPRWREGTKDSHDPLPSWLE", "note": "[A23L]", "protein stability index": 4.81}
{"variant": "EKQKQPRWREGTKDSHDPLPSWME", "note": "[A23M]", "protein stability index": 3.36}
{"variant": "EKQKQPRWREGTKDSHDPLPSWNE", "note": "[A23N]", "protein stability index": 4.99}
{"variant": "EKQKQPRWREGTKDSHDPLPSWPE", "note": "[A23P]", "protein stability index": 3.89}
{"variant": "EKQKQPRWREGTKDSHDPLPSWQE", "note": "[A23Q]", "protein stability index": 2.26}
{"variant": "EKQKQPRWREGTKDSHDPLPSWSE", "note": "[A23S]", "protein stability index": 2.01}
{"variant": "EKQKQPRWREGTKDSHDPLPSWTE", "note": "[A23T]", "protein stability index": 2.08}
{"variant": "EKQKQPRWREGTKDSHDPLPSWWE", "note": "[A23W]", "protein stability index": 2.76}
{"variant": "EKQKQPRWREGTKDSHDPLPSWYE", "note": "[A23Y]", "protein stability index": 4.24}
{"variant": "EKQKQPRWREGTKDSHDPLPSWAA", "note": "[E24A]", "protein stability index": 2.62}
{"variant": "EKQKQPRWREGTKDSHDPLPSWAC", "note": "[E24C]", "protein stability index": 2.66}
{"variant": "EKQKQPRWREGTKDSHDPLPSWAD", "note": "[E24D]", "protein stability index": 1.9}
{"variant": "EKQKQPRWREGTKDSHDPLPSWAF", "note": "[E24F]", "protein stability index": 3.11}
{"variant": "EKQKQPRWREGTKDSHDPLPSWAH", "note": "[E24H]", "protein stability index": 3.29}
{"variant": "EKQKQPRWREGTKDSHDPLPSWAI", "note": "[E24I]", "protein stability index": 3.06}
{"variant": "EKQKQPRWREGTKDSHDPLPSWAK", "note": "[E24K]", "protein stability index": 2.89}
{"variant": "EKQKQPRWREGTKDSHDPLPSWAL", "note": "[E24L]", "protein stability index": 3.02}
{"variant": "EKQKQPRWREGTKDSHDPLPSWAM", "note": "[E24M]", "protein stability index": 3.16}
{"variant": "EKQKQPRWREGTKDSHDPLPSWAN", "note": "[E24N]", "protein stability index": 3.02}
{"variant": "EKQKQPRWREGTKDSHDPLPSWAP", "note": "[E24P]", "protein stability index": 4.12}
{"variant": "EKQKQPRWREGTKDSHDPLPSWAR", "note": "[E24R]", "protein stability index": 3.34}
{"variant": "EKQKQPRWREGTKDSHDPLPSWAS", "note": "[E24S]", "protein stability index": 2.34}
{"variant": "EKQKQPRWREGTKDSHDPLPSWAT", "note": "[E24T]", "protein stability index": 2.39}
{"variant": "EKQKQPRWREGTKDSHDPLPSWAW", "note": "[E24W]", "protein stability index": 1.95}
{"variant": "EKQKQPRWREGTKDSHDPLPSWAY", "note": "[E24Y]", "protein stability index": 3.09}
{"variants_of": "B2", "experiment": "protein stability index of a GFP-peptide fusion (GPS, HEK-293T) (PSI 1-6); higher = more stable", "conditions": "c terminus: a fixed tail appended"}
{"variant": "YNIATRTKALKNPSEEYGKILEVV", "note": "[R7T]", "protein stability index": 2.95}
{"variant": "YNIATRRKALKNPSEEYGKWLEVV", "note": "[I20W]", "protein stability index": 2.82}
{"variant": "YNIATRRKALKNPSEEYGKILMVV", "note": "[E22M]", "protein stability index": 2.09}
{"variant": "YNEATRRKALKNPSEEYGKILEVV", "note": "[I3E]", "protein stability index": 2.74}
{"variant": "YNIATRRKALKNPSEEDGKILEVV", "note": "[Y17D]", "protein stability index": 4.3}
{"variant": "YNIATRRKALKNPSEEYGKILEKV", "note": "[V23K]", "protein stability index": 3.36}
{"variant": "YNIATRRKALVNPSEEYGKILEVV", "note": "[K11V]", "protein stability index": 2.53}
{"variant": "YNIATRVKALKNPSEEYGKILEVV", "note": "[R7V]", "protein stability index": 2.39}
{"variant": "YNIATRRKALKNPSEEYGKILENV", "note": "[V23N]", "protein stability index": 3.43}
{"variant": "YNIATRRKALKNKSEEYGKILEVV", "note": "[P13K]", "protein stability index": 3.19}
{"variant": "YNIATRRKALKNPSEEYGKFLEVV", "note": "[I20F]", "protein stability index": 2.39}
{"variant": "YNIATRRKALKNPSEEYGKILGVV", "note": "[E22G]", "protein stability index": 2.42}
{"variant": "YNIATSRKALKNPSEEYGKILEVV", "note": "[R6S]", "protein stability index": 2.7}
{"variant": "YNIATRRKALKNPEEEYGKILEVV", "note": "[S14E]", "protein stability index": 3.56}
